Test results taken from the supplement of paper PMC10567573.

B1: ZNF8 (parent)
chain: KPYTCSVCGKSFSRTTCLFLHLRT
B2: NP_009172.2 (parent)
chain: LPALFTDLYSQEITAEEAREALP

Variants of: B1
Assay: protein stability index of a GFP-peptide fusion (GPS, HEK-293T) (PSI 1-6); higher = more stable
Conditions: c terminus: a fixed tail appended

| Variant | protein stability index |
| --- | --- |
| WPYTCSVCGKSFSRTTCLFLHLRT [K1W] | 1.74 |
| TPYTCSVCGKSFSRTTCLFLHLRT [K1T] | 1.67 |
| KPYECSVCGKSFSRTTCLFLHLRT [T4E] | 1.77 |
| KPYHCSVCGKSFSRTTCLFLHLRT [T4H] | 1.8 |
| KPYICSVCGKSFSRTTCLFLHLRT [T4I] | 2.36 |
| KPYGCSVCGKSFSRTTCLFLHLRT [T4G] | 2.51 |
| KPYVCSVCGKSFSRTTCLFLHLRT [T4V] | 1.69 |
| KPYQCSVCGKSFSRTTCLFLHLRT [T4Q] | 1.49 |
| KPYFCSVCGKSFSRTTCLFLHLRT [T4F] | 1.9 |
| KPYPCSVCGKSFSRTTCLFLHLRT [T4P] | 1.86 |
| KPYRCSVCGKSFSRTTCLFLHLRT [T4R] | 2.4 |
| KPYWCSVCGKSFSRTTCLFLHLRT [T4W] | 1.62 |
| KPYSCSVCGKSFSRTTCLFLHLRT [T4S] | 1.48 |
| KPYLCSVCGKSFSRTTCLFLHLRT [T4L] | 2.19 |
| KPYMCSVCGKSFSRTTCLFLHLRT [T4M] | 1.83 |
| KPYYCSVCGKSFSRTTCLFLHLRT [T4Y] | 1.63 |
| KPYNCSVCGKSFSRTTCLFLHLRT [T4N] | 1.67 |
| KPYDCSVCGKSFSRTTCLFLHLRT [T4D] | 2.75 |
| KPYKCSVCGKSFSRTTCLFLHLRT [T4K] | 2.04 |
| KPYCCSVCGKSFSRTTCLFLHLRT [T4C] | 2.1 |

| Variant | protein stability index |
| --- | --- |
| KPYACSVCGKSFSRTTCLFLHLRT [T4A] | 1.43 |
| KPDTCSVCGKSFSRTTCLFLHLRT [Y3D] | 2.07 |
| KPLTCSVCGKSFSRTTCLFLHLRT [Y3L] | 2.19 |
| KPRTCSVCGKSFSRTTCLFLHLRT [Y3R] | 1.76 |
| KPCTCSVCGKSFSRTTCLFLHLRT [Y3C] | 1.7 |
| KPQTCSVCGKSFSRTTCLFLHLRT [Y3Q] | 2.01 |
| KPNTCSVCGKSFSRTTCLFLHLRT [Y3N] | 1.71 |
| KPGTCSVCGKSFSRTTCLFLHLRT [Y3G] | 1.61 |
| KPMTCSVCGKSFSRTTCLFLHLRT [Y3M] | 2.3 |
| KPATCSVCGKSFSRTTCLFLHLRT [Y3A] | 1.63 |
| KPFTCSVCGKSFSRTTCLFLHLRT [Y3F] | 1.4 |
| KPPTCSVCGKSFSRTTCLFLHLRT [Y3P] | 1.69 |
| KPHTCSVCGKSFSRTTCLFLHLRT [Y3H] | 2.46 |
| KPETCSVCGKSFSRTTCLFLHLRT [Y3E] | 1.76 |
| KPITCSVCGKSFSRTTCLFLHLRT [Y3I] | 1.7 |
| KPKTCSVCGKSFSRTTCLFLHLRT [Y3K] | 1.91 |
| KPWTCSVCGKSFSRTTCLFLHLRT [Y3W] | 1.7 |
| KPTTCSVCGKSFSRTTCLFLHLRT [Y3T] | 2.4 |
| KPVTCSVCGKSFSRTTCLFLHLRT [Y3V] | 2.1 |
| KPSTCSVCGKSFSRTTCLFLHLRT [Y3S] | 1.74 |

| Variant | protein stability index |
| --- | --- |
| KLYTCSVCGKSFSRTTCLFLHLRT [P2L] | 1.74 |
| KAYTCSVCGKSFSRTTCLFLHLRT [P2A] | 2.24 |
| KRYTCSVCGKSFSRTTCLFLHLRT [P2R] | 1.77 |
| KEYTCSVCGKSFSRTTCLFLHLRT [P2E] | 2.55 |
| KCYTCSVCGKSFSRTTCLFLHLRT [P2C] | 1.86 |
| KHYTCSVCGKSFSRTTCLFLHLRT [P2H] | 2.5 |
| KSYTCSVCGKSFSRTTCLFLHLRT [P2S] | 2.72 |
| KWYTCSVCGKSFSRTTCLFLHLRT [P2W] | 2.42 |
| KMYTCSVCGKSFSRTTCLFLHLRT [P2M] | 1.98 |
| KDYTCSVCGKSFSRTTCLFLHLRT [P2D] | 2.33 |
| KYYTCSVCGKSFSRTTCLFLHLRT [P2Y] | 2.09 |
| KGYTCSVCGKSFSRTTCLFLHLRT [P2G] | 3 |
| KNYTCSVCGKSFSRTTCLFLHLRT [P2N] | 2.14 |
| KVYTCSVCGKSFSRTTCLFLHLRT [P2V] | 2.46 |
| KTYTCSVCGKSFSRTTCLFLHLRT [P2T] | 2.19 |
| KIYTCSVCGKSFSRTTCLFLHLRT [P2I] | 2.08 |
| KQYTCSVCGKSFSRTTCLFLHLRT [P2Q] | 1.87 |
| KKYTCSVCGKSFSRTTCLFLHLRT [P2K] | 2.05 |
| KFYTCSVCGKSFSRTTCLFLHLRT [P2F] | 1.48 |

Variants of: B2
Assay: as above
Conditions: c terminus: native

| Variant | protein stability index |
| --- | --- |
| LPALFTDLYSQEITAEEFREALP [A18F] | 2.73 |
| LPALFTDLYSQEITAEEYREALP [A18Y] | 2.35 |
| LPALFTDLYSQEITTEEAREALP [A15T] | 3.05 |
| LPALFTDLYSQEITFEEAREALP [A15F] | 2.53 |
| LNALFTDLYSQEITAEEAREALP [P2N] | 2.59 |
| LVALFTDLYSQEITAEEAREALP [P2V] | 2.46 |
| LYALFTDLYSQEITAEEAREALP [P2Y] | 2.85 |
| LPALFTDLYSQEICAEEAREALP [T14C] | 2.48 |
| LPALFTDLYSQEILAEEAREALP [T14L] | 2.48 |
| LPALFTDLYSQEIDAEEAREALP [T14D] | 2.55 |
| LPALKTDLYSQEITAEEAREALP [F5K] | 5.25 |
| LPALFTDLYSQEITAEEAREVLP [A21V] | 2.16 |
| LPALFTDLYSQEITAEEAREGLP [A21G] | 2.81 |
| LPMLFTDLYSQEITAEEAREALP [A3M] | 2.47 |
| LPQLFTDLYSQEITAEEAREALP [A3Q] | 2.22 |
| LPALFTDLYSQWITAEEAREALP [E12W] | 2.21 |
| LPALFTDLYSQKITAEEAREALP [E12K] | 2.92 |
| LPALFTDLYSQEITAGEAREALP [E16G] | 2.9 |

| Variant | protein stability index |
| --- | --- |
| LPALFTDLYSVEITAEEAREALP [Q11V] | 2.79 |
| LPALFTDLASQEITAEEAREALP [Y9A] | 2.34 |
| LPALFTDLPSQEITAEEAREALP [Y9P] | 5.13 |
| LPALFTDLKSQEITAEEAREALP [Y9K] | 5.39 |
| LPALFTDLYSQEITAEEAREALA [P23A] | 4.14 |
| LPALFTDLYSQEITAEEAREALM [P23M] | 2.27 |
| LPALFTDLYSQEITAEEAREALL [P23L] | 4.01 |
| LPALFTDLYSQEITAEEATEALP [R19T] | 2.9 |
| LPAEFTDLYSQEITAEEAREALP [L4E] | 5.24 |
| LPACFTDLYSQEITAEEAREALP [L4C] | 2.64 |
| LPAQFTDLYSQEITAEEAREALP [L4Q] | 3.62 |
| LPALFTDLYSQEETAEEAREALP [I13E] | 3.25 |
| LPALFTDLYSQEMTAEEAREALP [I13M] | 2.53 |
| HPALFTDLYSQEITAEEAREALP [L1H] | 2.6 |
| NPALFTDLYSQEITAEEAREALP [L1N] | 2.86 |
| LPALFTDLYSQEITAEEARMALP [E20M] | 2.39 |
| LPALFTDLYSQEITAEEARLALP [E20L] | 2.51 |
| LPALFTDLYSQEITAEEARKALP [E20K] | 2.42 |
